Assay results taken from the supplement of paper PMC10567573.

B1: FBXO3 (parent)
chain: HDPLWRRHCKKYWLISEEEKTQKN
B2: USP39 (parent)
chain: FQGSMRIFTKKLPHPDLPAEEKEQ

Variants of: B1
Experiment: protein stability index of a GFP-peptide fusion (GPS, HEK-293T) (PSI 1-6); higher = more stable
Conditions: c terminus: a fixed tail appended
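Further: lentivirally expressed fusions sorted by FACS into six bins by GFP to DsRed ratio, PSI derived from sequencing read proportions per bin multiplied by bin number.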

Protein stability index: each site, then its substitutions
H1: N 3.38, Q 3.13
Y12: N 3.58, G 3.74, S 3.91, T 4.13, D 4.63
W13: D 4.38, C 3.67
S16: V 2.73, T 3.51
N24: W 2.47
K20: G 3.51, A 2.85
K11: A 3.6, G 2.7
L14: Y 3.56, M 3.27, V 3.27
I15: S 3.62, C 3.73
L4: A 2.92, D 4.6
Q22: S 2.97, W 2.05
E17: F 2.56, K 3.31, H 3.05
K23: N 3.05, M 3.19
E19: I 2.38, C 2.84
K10: E 3.81, S 3.32, H 3.27
D2: W 1.97
P3: R 2.91, T 3.84, S 3.38

Variants of: B2
Experiment: as above
Conditions: c terminus: a fixed tail appended

Protein stability index of substitutions, site by site:
E21: G 1.88, Y 1.62, P 2.02, W 1.32, D 1.73, L 2.04, S 2.12, M 2.23, R 1.96, N 2.36, H 2.25, Q 2.08, F 2.29, V 1.4, T 2.01, K 1.91, C 1.54, I 2.45, A 1.81
A19: D 2.07, I 1.53, M 1.63, Q 2.31, L 2.25, N 1.79, T 1.68, C 1.96, W 1.58, S 2.08, R 1.64, K 1.73, G 1.63, V 2.25, F 1.81, E 2.37, Y 1.34, H 2.25, P 2.5
K22: S 1.88, C 1.69, Q 1.62, N 2.09, V 2.48, L 1.78, G 2.13, W 1.93, H 1.22, Y 1.54, P 2.09, I 1.94, T 1.93, D 2.08, E 2.11, A 2.23, F 1.96, M 2.32, R 2.54
Q24: D 2.32, I 2.13, Y 1.62, K 2.37, G 2.42, W 1.33, L 1.91, V 1.52, C 2.15, E 1.81, H 2.05, R 2.15, M 2.05, T 2.1, A 2.05, P 1.83, S 2.14, F 1.87, N 2.12
E23: C 1.79, V 1.47, Y 1.66, K 1.84, F 1.38, Q 1.64, W 2.19, M 1.85, L 1.69, D 2.16, I 1.57, T 1.61, H 2.18, G 2.21, N 2.1, P 1.84, S 1.98, A 1.65, R 1.71
E20: Q 1.36, S 2.16, W 2.38, V 1.5, I 2.03, H 1.59, C 2.12, A 1.9, Y 1.87, G 1.59, K 2.51, R 1.95, M 1.67, T 2.17, N 1.51, D 1.87, L 2.07, F 1.85
P18: T 1.88, N 1.98, K 2.01, S 2.21, H 1.82, V 1.71, I 1.7, L 1.75, R 1.88, G 1.98, W 2.1, Y 1.74, F 2.11, Q 2.15, M 2.06
